Reference: publication PMC11220838, “Factors affecting macromolecule orientations in thin films formed in cryo-EM” (Acta Crystallographica. Section D, Structural Biology, 2024)
Where “and” joins values, the source holds several entries; their conditions need not be identical. Equal entries are not always repeated.

What was measured:
[1] = molecular target: SARS-CoV-2 spike protein with C-terminal tag (SARS-CoV-2); assay: cryo-EM structure
[2] = molecular target: T1, Human C-reactive protein (human), P02741; assay: cryo-EM structure; single-particle cryo-EM, plunge-frozen Quantifoil 1.2/1.3 grids, 20 mM Tris pH 8, 280 mM NaCl, 5 mM CaCl2, 0.03% NaN3; no additive or CTAB, SLS, Tween 20, Tween 80, A8-35; 20°C; conditions: remark: other sources report otherwise
T1 chain: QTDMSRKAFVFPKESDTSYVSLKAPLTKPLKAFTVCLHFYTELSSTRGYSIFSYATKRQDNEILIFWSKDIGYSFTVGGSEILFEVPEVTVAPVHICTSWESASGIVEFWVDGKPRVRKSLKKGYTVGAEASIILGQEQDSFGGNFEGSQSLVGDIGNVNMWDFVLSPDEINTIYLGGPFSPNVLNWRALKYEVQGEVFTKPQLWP

[3] = molecular target: the molecule itself; assay: cryo-EM structure; single-particle cryo-EM, plunge-frozen Quantifoil 0.6/1 grids, 25 mM HEPES pH 7.4, 50 mM NaCl; no additive or CTAB; 4 or 20°C; D3 symmetry

Work on “SARS-CoV-2 spike protein with C-terminal tag (domain or fragment)” yielded a stoichiometry N [1] of 3.

B1: Human C-reactive protein, P02741 19-224 (natural protein)
chain: QTDMSRKAFVFPKESDTSYVSLKAPLTKPLKAFTVCLHFYTELSSTRGYSIFSYATKRQDNEILIFWSKDIGYSFTVGGSEILFEVPEVTVAPVHICTSWESASGIVEFWVDGKPRVRKSLKKGYTVGAEASIILGQEQDSFGGNFEGSQSLVGDIGNVNMWDFVLSPDEINTIYLGGPFSPNVLNWRALKYEVQGEVFTKPQLWP
B1 was tested, and the stoichiometry N [2] was 5 and 10.

B2: E. coli PaaZ (enzyme)
chain: QQLASFLSGTWQSGRGRSRLIHHAISGEALWEVTSEGLDMAAARQFAIEKGAPALRAMTFIERAAMLKAVAKHLLSEKERFYALSAQTGATRADSWVDIEGGIGTLFTYASLGSRELPDDTLWPEDELIPLSKEGGFAARHLLTSKSGVAVHINAFNFPCWGMLEKLAPTWLGGMPAIIKPATATAQLTQAMVKSIVDSGLVPEGAISLICGSAGDLLDHLDSQDVVTFTGSAATGQMLRVQPNIVAKSIPFTMEADSLNCCVLGEDVTPDQPEFALFIREVVREMTTKAGQKCTAIRRIIVPQALVNAVSDALVARLQKVVVGDPAQEGVKMGALVNAEQRADVQEKVNILLAAGCEIRLGGQADLSAAGAFFPPTLLYCPQPDETPAVHATEAFGPVATLMPAQNQRHALQLACAGGGSLAGTLVTADPQIARQFIADAARTHGRIQILNEESAKESTGHGSPLPQLVHGGPGRAGGGEELGGLRAVKHYMQRTAVQGSPTMLAAISKQWVRGAKVEEDRIHPFRKYFEELQPGDSLLTPRRTMTEADIVNFACLSGDHFYAHMDKIAAAESIFGERVVHGYFVLSAAAGLFVDAGVGPVIANYGLESLRFIEPVKPGDTIQVRLTCKRKTLKKQRSAEEKPTGVVEWAVEVFNQHQTPVALYSILTLVARQHGDFVD
notes: source: recombinantly overexpressed, purified as described in Sathyanarayanan et al. (2019)
With B2 the “stoichiometry N” value [3] was 6.
